Reference: patent US20210317223A1 (DRAGONFLY THERAPEUTICS, published 2021)
Blank lines part the entries; values can stand above or below the binder they belong to.

What was measured:
CD16-F158V = target: T1, CD16-F158V (UniProt P08637 17-254); experiment: flow cytometry on KHYG-1 cells transduced with CD16-F158V (the cells also express NKG2D), anti-human IgG secondary antibody, MFI
T1 construct: whole, on cells; It is probably the mature protein, so it may not match the position on the precursor entry; The KHYG-1 cells also express NKG2D
T1 sequence (P08637 17-254 F176V): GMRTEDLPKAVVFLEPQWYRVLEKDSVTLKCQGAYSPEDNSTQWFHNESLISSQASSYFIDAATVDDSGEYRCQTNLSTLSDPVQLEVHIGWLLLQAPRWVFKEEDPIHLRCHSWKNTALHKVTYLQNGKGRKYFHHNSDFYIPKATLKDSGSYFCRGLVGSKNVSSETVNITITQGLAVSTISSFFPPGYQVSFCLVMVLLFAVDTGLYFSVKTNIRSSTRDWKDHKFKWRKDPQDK
Description: (§1) The KHYG-1 human NK cell line was used to assess NKG2D binding of TriNKET NKG2D-binding-F4-TriNKET-BCMA. KHYG-1 cells transduced to express CD16-F158V were used to investigate the contribution of Fc CD16 binding. TriNKETs were diluted, and were incubated with KHYG-1 cells. Binding of the TriNKET was detected using a fluorophore conjugated anti-human IgG secondary antibody. Cells were analyzed by flow cytometry and Median Fluorescence Intensity (“MFI”) reported.

[1] = target: T2, B-cell maturation antigen (BCMA) (human, UniProt Q02223 1-184); experiment: flow cytometry on KMS12-PE cells, 100 ug/mL, incubation times as labelled, anti-human IgG secondary antibody
T2 construct: This is endogenous BCMA on human myeloma cell lines (KMS12-PE low, MM.1R high expression); the whole entry is used; also called surface BCMA
T2 sequence: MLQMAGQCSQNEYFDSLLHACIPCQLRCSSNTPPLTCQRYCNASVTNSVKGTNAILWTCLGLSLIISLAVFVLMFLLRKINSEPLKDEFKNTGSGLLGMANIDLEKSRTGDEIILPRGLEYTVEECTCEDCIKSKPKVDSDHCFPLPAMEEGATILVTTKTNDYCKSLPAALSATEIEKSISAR
Description: KMS12-PE or MM.1R cells were incubated with an anti-BCMA monoclonal antibody (MAB42), bivalent TriNKET (NKG2D-binding-F4-TriNKET-BCMA), or monovalent TriNKET (A49-DB-TriNKET-BCMA). A49-DB-TriNKET-BCMA is a TriNKET in which the first antigen-binding site comprises an Fab that binds NKG2D and the second antigen-binding site comprises an Fab that binds BCMA, each connected to an Fc domain, forming a bi-valent antibody (WO2018/148566).
To assess total surface BCMA, a saturating concentration of 100 μg/mL was used, whereas 100 ng/mL was selected to investigate sub-saturation surface stabilization. Each sample was divided into thirds, with an aliquot each placed on ice for 20 minutes, at 37° C. for 2 hours or 37° C. for 24 hours. After the incubation period cells were washed and bound TriNKET was detected using an anti-human IgG secondary antibody. After staining the cells were fixed and stored at 4° C., all samples were analyzed at the end of the study.

NKG2D = target: T3, NKG2D (human, UniProt P26718 1-216); experiment: flow cytometry on KHYG-1 parental (CD16-) cells expressing NKG2D, anti-human IgG secondary antibody, MFI
T3 construct: whole, on cells; also called NKG2D receptor
T3 sequence (looked up): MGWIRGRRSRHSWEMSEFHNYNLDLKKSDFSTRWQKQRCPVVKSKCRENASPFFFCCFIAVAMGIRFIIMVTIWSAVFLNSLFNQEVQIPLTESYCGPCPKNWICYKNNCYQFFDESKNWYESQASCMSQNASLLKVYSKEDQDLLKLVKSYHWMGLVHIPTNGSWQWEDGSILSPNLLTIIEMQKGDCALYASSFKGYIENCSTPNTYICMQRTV
Description: as §1

binding result (CD16-F158V): binds
binding result [1]: binds
B1: NKG2D-binding-F4-TriNKET-BCMA (bispecific antibody, human IgG1, kappa)
heavy 1: EVQLLESGGGLVQPGGSLRLSCAASGFTFSDNAMGWVRQAPGKGLEWVSAISGPGSSTYYADSVKGRFTISRDNSKNTLYLQMNSLRAEDTAVYYCAKVLGWFDYWGQGTLVTVSSASTKGPSVFPLAPSSKSTSGGTAALGCLVKDYFPEPVTVSWNSGALTSGVHTFPAVLQSSGLYSLSSVVTVPSSSLGTQTYICNVNHKPSNTKVDKKVEPKSCDKTHTCPPCPAPELLGGPSVFLFPPKPKDTLMISRTPEVTCVVVDVSHEDPEVKFNWYVDGVEVHNAKTKPREEQYNSTYRVVSVLTVLHQDWLNGKEYKCKVSNKALPAPIEKTISKAKGQPREPRVYTLPPCRDELTKNQVSLTCLVKGFYPSDIAVEWESNGQPENNYKTTPPVLVSDGSFTLYSKLTVDKSRWQQGNVFSCSVMHEALHNHYTQKSLSLSPGSGSGGGGSDIQMTQSPSSVSASVGDRVTITCRASQGISSWLAWYQQKPGKAPKLLIYAASSLQSGVPSRFSGSGSGTDFTLTISSLQPEDFATYYCQQGVSFPRTFGCGTKVEIKGGGGSGGGGSGGGGSGGGGSEVQLVESGGGLVKPGGSLRLSCAASGFTFSSYSMNWVRQAPGKCLEWVSSISSSSSYIYYADSVKGRFTISRDNAKNSLYLQMNSLRAEDTAVYYCARGAPMGAAAGWFDPWGQGTLVTVSS
heavy 2: EVQLLESGGGLVQPGGSLRLSCAASGFTFSDNAMGWVRQAPGKGLEWVSAISGPGSSTYYADSVKGRFTISRDNSKNTLYLQMNSLRAEDTAVYYCAKVLGWFDYWGQGTLVTVSSASTKGPSVFPLAPSSKSTSGGTAALGCLVKDYFPEPVTVSWNSGALTSGVHTFPAVLQSSGLYSLSSVVTVPSSSLGTQTYICNVNHKPSNTKVDKKVEPKSCDKTHTCPPCPAPELLGGPSVFLFPPKPKDTLMISRTPEVTCVVVDVSHEDPEVKFNWYVDGVEVHNAKTKPREEQYNSTYRVVSVLTVLHQDWLNGKEYKCKVSNKALPAPIEKTISKAKGQPREPQVCTLPPSRDELTENQVSLTCLVKGFYPSDIAVEWESNGQPENNYKTTPPVLDSDGSFFLYSWLTVDKSRWQQGNVFSCSVMHEALHNHYTQKSLSLSPG
light: EIVLTQSPGTLSLSPGERATLSCRASQSVSDEYLSWYQQKPGQAPRLLIHSASTRATGIPDRFSGSGSGTDFTLAISRLEPEDFAVYYCQQYGYPPDFTFGQGTKVEIKRTVAAPSVFIFPPSDEQLKSGTASVVCLLNNFYPREAKVQWKVDNALQSGNSQESVTEQDSKDSTYSLSSTLTLSKADYEKHKVYACEVTHQGLSSPVTKSFNRGEC
notes: An A49 anti-NKG2D scFv sits at the C-terminus of one Fc chain; also called A49-F4-TriNKET-BCMA; NKG2D-F4-TriNKET-BCMA

binding result (CD16-F158V): binds
binding result [1]: binds
binding result (NKG2D): no binding (tested: 100 ug/ml)
B2: anti-BCMA monoclonal antibody MAB42 (antibody, V domains shown)
VH: EVQLLESGGGLVQPGGSLRLSCAASGFTFSDNAMGWVRQAPGKGLEWVSAISGPGSSTYYADSVKGRFTISRDNSKNTLYLQMNSLRAEDTAVYYCAKVLGWFDYWGQGTLVTVSS
VL: EIVLTQSPGTLSLSPGERATLSCRASQSVSDEYLSWYQQKPGQAPRLLIHSASTRATGIPDRFSGSGSGTDFTLAISRLEPEDFAVYYCQQYGYPPDFTFGQGTKVEIK
notes: also called anti-BCMA mAb; BCMA mAb
